Data from PMC3173040.

Experiments:
actin [1] = target: actin (UniProt P68135); assay: SAXS
actin [2] = target: actin (UniProt P68135); assay: SEC-MALS
[3] = target: VopL fragment 200-484 (1W-VCD) (Vibrio parahaemolyticus) (UniProt Q87GE5); assay: SEC-MALS
[4] = target: 3W-VCD-AviTag bound to quantum dots (Vibrio parahaemolyticus) (UniProt Q87GE5); assay: TIRF microscopy
actin [5] = target: actin (UniProt P68135); assay: ITC

**Q.** Which results are given for “VopL fragment 200-484 (1W-VCD) (from UniProt Q87GE5 200-484) (domain or fragment)”?
**A.** stoichiometry N (actin molecules per 1W-VCD dimer) (actin [1]): 2; stoichiometry N (actin molecules per 1W-VCD dimer) (actin [2]): 2; stoichiometry N [3]: 2

**Q.** For “actin (from UniProt P68135 1-377) (natural protein)”, which percent of filaments associated with Qdots through the pointed end [4] is on record?
**A.** 10.9%

**Q.** “third W domain of VopL (domain or fragment)” was tested. Which Kd (actin [5]) did it give?
**A.** 410 nM
